The labels stand for the following.
B1: TRF1_(TRFH) (TRFH domain of TRF1, residues 58–268), GST tag removed (domain or fragment, human, UniProt P54274 58-268, looked up)
chain: EEEEEDAGLVAEAEAVAAGWMLDFLCLSLCRAFRDGRSEDFRRTRNSAEAIIHGLSSLTACQLRTIYICQFLTRIAAGKTLDAQFENDERITPLESALMIWGSIEKEHDKLHEEIQNLIKIQAIAVCMENGNFKEAEEVFERIFGDPNSHMPFKSKLLMIISQKDTFHSFFQHFSYNHMMEKIKSYVNYVLSEKSSTFLMKAAAKVVESKR
B3: Fbx4G (Fbx4 GTPase domain, residues 162–387) (domain or fragment, human, UniProt Q9UKT5 162-387, looked up)
chain: GAVTSFLHSLIIQNEPRFAMFGPGLEELNTSLVLSLMSSEELCPTAGLPQRQIDGIGSGVNFQLNNQHKFNILILYSTTRKERDRAREEHTSAVNKMFSRHNEGDDQQGSRYSVIPQIQKVCEVVDGFIYVANAEAHKRHEWQDEFSHIMAMTDPAFGSSGRPLLVLSCISQGDVKRMPCFYLAHELHLNLLNHPWLVQDTEAETLTGFLNGIEWILEEVESKRAR

Series [1] deals with the molecule itself. As to the kind of experiment: crystal structure.
Series [2] deals with B3. As to the kind of experiment: pull-down.
For series [3], the target named is B1. As to the kind of experiment: crystal structure.

In general, stoichiometry N refers to the number of molecules, sites or subunits per partner or assembly.

Turning to B1, the binding result in series [1] is “binds”.

B2: GST-TRF1_(TRFH) (domain or fragment, human, UniProt P54274 58-268, looked up)
chain: EEEEEDAGLVAEAEAVAAGWMLDFLCLSLCRAFRDGRSEDFRRTRNSAEAIIHGLSSLTACQLRTIYICQFLTRIAAGKTLDAQFENDERITPLESALMIWGSIEKEHDKLHEEIQNLIKIQAIAVCMENGNFKEAEEVFERIFGDPNSHMPFKSKLLMIISQKDTFHSFFQHFSYNHMMEKIKSYVNYVLSEKSSTFLMKAAAKVVESKR
Regarding B2, in series [2], the binding result was “binds”.
In the case of B3, the “stoichiometry N” value in series [3] was 1 Fbx4G per TRF1_TRFH (printed as 2:2).

(Values after publication PMC6097615 (Developmental cell, 2010).)
